{"source": "patent US10240180B2", "about": "“Multiplexed screening of enzyme activities using nanostructure-initiator mass spectrometry” (The Regents of the University of California, priority 2011, dated 2019)", "assay_type_in_all_cases": "biochemical", "key": {"[1]": {"assay": "Multiplexed β-glucosidase/β-xylosidase assay with known enzymes, xylobiose substrate", "conditions": "equal amounts CB-F17 and XB-F17 (0.1 mM each), 1 h", "from_the_text": "(§1) It can be difficult to discriminate between several products in simultaneous reactions using conventional spectroscopic methods since these reactions typically yield the same outputs and there are only a few unique absorption or emission patterns that can be resolved separately. In contrast, mass spectrometry can resolve thousands of ions and therefore we have discovered that it is well-suited for the parallel detection of large numbers of reaction products where the substrates and occurring products differ in mass. This is the case, for example, when using pentose and hexose-based substrates at the same time. The hydrolysis of polysaccharides with identical masses (e.g. cellobiose and maltose) can even be analyzed in the same run by using different chemical structures in the linker or perfluorinated tags of varying length. Thus, potentially dozens of enzymatic conversions can be tested simultaneously using this method. Here both β-glucosidase and β-xylosidase activities were detected simultaneously utilizing a substrate cocktail comprised of equal amounts of CB-F17 and XB-F17. In the non-enzyme control only signals for cellobiose and xylobiose were detectable (FIG. 5a). […]\n(§2) In each case 0.5-1 μL per quenched reaction sample was spotted onto the NIMS surface and removed after an incubation of ˜30 s. […] Enzyme activities were determined by forming product-to-substrate ratios."}, "[2]": {"assay": "Separate analysis of β-xylosidase activity (NIMS)", "conditions": "XB-F17 substrate, 1 h", "description": "The separate characterization of β-glucosidase and β-xylosidase activity was carried out in reaction volumes of 20-50 μL, by mixing 0.1 mM cellobiose with 8 μg of NS50010 in 50 mM sodium acetate buffer (pH 4.8), or 0.1 mM xylobiose with 0.13 μg (in […]) or 0.33 μg (in 50 μL) of 1,4-β-D-xylosidase in 50 mM potassium phosphate buffer (pH 7.5) with 1 mg/mL BSA. For the competition studies with cellobiose, samples additionally contained 10, 25, or 50 mM of unlabeled cellobiose (Sigma-Aldrich; St. Louis, Mo.). Other buffers used for the determination of the pH optima were McIlvaine's citrate/phosphate buffer (pH 2.6 and 6.0), 50 mM Tris buffer (pH 9.0) for NS50010, and 50 mM potassium phosphate buffer (pH 6.0), 50 mM Tris buffer (pH 9.0), 50 mM sodium borate buffer (pH 11.0), all with 1 mg/mL BSA for the β-xylosidase. Samples were incubated for 1 h at 35° C. (β-xylosidase) or 50° C. […]\nIn FIG. 4a, the determined temperature optima for the used enzymes were 50-60° C. for β-glucosidase (black) and 35° C. for β-xylosidase (gray). In FIG. 4b, the determined pH optima were around pH 4.8 for β-glucosidase (black) and around pH 7.5 for β-xylosidase (gray). […]\nas §2"}, "[3]": {"assay": "Multiplexed β-glucosidase/β-xylosidase assay with known enzymes, cellobiose substrate", "conditions": "equal amounts CB-F17 and XB-F17 (0.1 mM each), 1 h", "from_the_text": "as §1, §2"}}, "data": [{"molecule": "β-xylosidase: 1,4-β-D-xylosidase from Bacillus pumilus purchased from Megazyme (protein, UniProt P07129 1-535, looked up) Beta-xylosidase: MKITNPVLKGFNPDPSICRAGEDYYMAVSTFEWFPGVQIYHSKDLIHWRLAARPLQKTSQLDMKGNPDSGGVWAPCLSYADGQFWLIYSDIKVVDGPFKDGHNYLVTADAVDGEWSDPVRLNSSGFDPSLFHDPSGKKYVLNMLWDHREKHHSFAGIALQEYSVSEKKLVGERKVIFKGTPIKLTEAPHLYYINDVYYLLTAEGGTRYEHAATIARSSRIDGPYEVHPDNPILTAFHAPSHPLQKCGHASIVQTHTNEWYLAHLTGRPIHSSKESIFQQRGWCPLGRETAIQKLEWKDGWPYVVGGKEGLLEVEAPAMSVKEFSPTYHIVDEFKDSSLNRHFQTLRIPFTDQIGSVTENPHHLRLYGQESLTSKFTQAFVARRWQSFYFEAETAVSFFPKNFQQAAGLVNYYNTENWTALQVTYDDALGRILELSVCENLAFSQPLIKKIIIPDEIPYVYLKVTVQRETYTYSYSFDQQEWEKIDVPLESTHLSDDFIRGGGFFTGAFVGMQCQDTSGERLPADFKYFRYEETTE", "values": [{"measurement": "cleavage of xylobiose (XB-F17) in substrate cocktail", "setting": "[1]", "result": "conversion of xylobiose to xylose"}, {"measurement": "temperature optimum", "setting": "[2]", "result": 35, "unit": "°C"}, {"measurement": "pH optimum", "setting": "[2]; 35° C.", "result": "~7.5", "unit": "pH"}, {"measurement": "cleavage of cellobiose (CB-F17) in substrate cocktail", "setting": "[3]", "result": "no enzymatic cleavage of cellobiose"}]}]}
